Measurements: PMC10330844 (Traffic (Copenhagen, Denmark), 2023)

Experiments:
[1] = target: T1, Syntaxin-5 (STX5), endogenous, as precipitated by the anti-STX5 antibody (human (endogenous in HEK293T), UniProt Q13190 1-355); test: co-IP
T1 sequence (looked up): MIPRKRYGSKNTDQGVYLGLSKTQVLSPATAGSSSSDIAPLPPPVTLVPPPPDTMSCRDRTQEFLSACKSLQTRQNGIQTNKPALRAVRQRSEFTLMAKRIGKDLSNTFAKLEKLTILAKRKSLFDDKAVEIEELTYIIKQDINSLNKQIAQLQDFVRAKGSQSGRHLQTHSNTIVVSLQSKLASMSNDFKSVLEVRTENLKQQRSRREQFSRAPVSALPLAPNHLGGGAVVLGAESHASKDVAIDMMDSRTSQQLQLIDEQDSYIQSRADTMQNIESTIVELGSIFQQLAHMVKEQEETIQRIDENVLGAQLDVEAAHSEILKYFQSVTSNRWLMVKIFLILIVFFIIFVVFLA

[2] = target: T2, SNAP29-His6 (SNAP29 in pET23a) (UniProt O95721 1-258); test: pull-down
T2 sequence (looked up): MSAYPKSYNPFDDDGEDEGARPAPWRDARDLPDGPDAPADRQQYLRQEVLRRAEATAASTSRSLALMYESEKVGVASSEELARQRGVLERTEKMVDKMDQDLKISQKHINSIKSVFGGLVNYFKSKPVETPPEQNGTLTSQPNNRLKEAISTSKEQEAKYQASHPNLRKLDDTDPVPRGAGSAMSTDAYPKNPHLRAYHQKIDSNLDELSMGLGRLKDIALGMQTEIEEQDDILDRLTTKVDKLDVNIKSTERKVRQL

| Binder | percent of the cellular protein present in STX5 complexes (GS28 KO cells) [1] [%] | stoichiometry N [2] |
| --- | --- | --- |
| VTI1B, endogenous (natural protein, human (endogenous in HEK293T), UniProt Q9UEU0 1-232, looked up) MASSAASSEHFEKLHEIFRGLHEDLQGVPERLLGTAGTEEKKKLIRDFDEKQQEANETLAEMEEELRYAPLSFRNPMMSKLRNYRKDLAKLHREVRSTPLTATPGGRGDMKYGIYAVENEHMNRLQSQRAMLLQGTESLNRATQSIERSHRIATETDQIGSEIIEELGEQRDQLERTKSRLVNTSENLSKSRKILRSMSRKVTTNKLLLSIIILLELAILGGLVYYKFFRSH | < 25 | – |
| VAMP7, endogenous (natural protein, human (endogenous in HEK293T), UniProt P51809 1-220, looked up) MAILFAVVARGTTILAKHAWCGGNFLEVTEQILAKIPSENNKLTYSHGNYLFHYICQDRIVYLCITDDDFERSRAFNFLNEIKKRFQTTYGSRAQTALPYAMNSEFSSVLAAQLKHHSENKGLDKVMETQAQVDELKGIMVRNIDLVAQRGERLELLIDKTENLVDSSVTFKTTSRNLARAMCMKNLKLTIIIIIVSIVFIYIIVSPLCGGFTWPSCVKK | < 25 | – |
| SNAP29, endogenous (natural protein, human (endogenous in HEK293T), UniProt O95721 1-258, looked up) MSAYPKSYNPFDDDGEDEGARPAPWRDARDLPDGPDAPADRQQYLRQEVLRRAEATAASTSRSLALMYESEKVGVASSEELARQRGVLERTEKMVDKMDQDLKISQKHINSIKSVFGGLVNYFKSKPVETPPEQNGTLTSQPNNRLKEAISTSKEQEAKYQASHPNLRKLDDTDPVPRGAGSAMSTDAYPKNPHLRAYHQKIDSNLDELSMGLGRLKDIALGMQTEIEEQDDILDRLTTKVDKLDVNIKSTERKVRQL | ~35 | – |
| GST-STX5 (rSTX5 (55-333) in pGEX-KG) (domain or fragment, UniProt Q08851 55-333, looked up) MSCRDRTQEFLSACKSLQSRQNGIQTNKPALHATRQCSEFTLMARRIGKDLSNTFAKLEKLTILAKRKSLFDDKAVEIEELTYIIKQDINSLNKQIAQLQDFVRAKGSQSGRHLQTHSNTIVVSLQSKLASMSNDFKSVLEVRTENLKQQRNRREQFSRAPVSALPLAPNNLGGGPIVLGGESRASRDVAIDMMDPRTSQQLQLIDEQDSYIQSRADTMQNIESTIVELGSIFQQLAHMVKEQEETIQRIDENVLGAQLDVEAAHSEILKYFQSVTSNR | – | 1 |
